Laboratory results taken from patent US11419837B2, “Modified release orally administered amino acid formulations” (APR APPLIED PHARMA RESEARCH S.A., priority 2015, dated 2022).

Legend:
[1] = In vivo bioavailability in pig: large neutral amino acid (LNAA) plasma concentrations; conditions: LNAA (RAW DATA), pigs, oral by gavage
Experimental: (§1) The following formulations were tested: • APR-04 (bkT037/72-4) • APR-07 (bkT037/73-7) • Free amino acid (bkT037/71) • Casein In Vivo Study Design: • Subjects: 8 pigs • Design: 4 formulations in crossover • Administration route and method: oral, by gavage. The product dose was administered to each animal mixed with a small amount of water (300 ml) in order to ensure fast (≤5 minutes) assumption. The total amount of the product was administered using syringes. The animals were fasted for 13.5±0.5 hours before the treatment and the access to water was suspended one hour before and one hour after the treatment. • Dose, frequency and duration of administration: The amount of product administered was based on body-weight and equaled 0.8 g of amino acid/kg body weight for each test product. The products were administered by a single administration in the morning of each day of treatment. • Wash out: 48-72 hours • Blood sampling: 0.75 h before Treatment (T), 0.5 h before T, 0.25 h before T, 0.25 h after T, 0.5 h after T, 0.75 h after T, 1 h after T, 1.25 h after T, 1.5 h after T, 2 h after T, 2.5 h after T, 3 h after T, 4 h after T, 5 h after T • Analysis: The plasma concentrations of 14 amino acids (Alanine, Arginine, Glutamine, Glycine, Histidine, Isoleucine, Leucine, Lysine, Proline, Serine, Threonine, Tryptophan, Tyrosine, Valine) were measured and analyzed. Methionine and Aspartic acid were excluded from the analysis due to stability issues. The following parameters were evaluated: Area Under the concentration/time Curve (AUC0-last), peak concentration (Cmax), time to peak concentration (Tmax) and Clast. The behavior of the two APR Formulations was compared to the formulation of Free Amino Acids and Casein. Results:
The amino acids aggregated together for analysis were tryptophan, threonine, valine, isoleucine, leucine, histidine. […] Phenylalanine was excluded from the analysis because it was not present in the formulations tested. This subgroup of essential amino acids was chosen for analysis because LNAA share with phenylalanine a common transport system in order to enter the brain. High plasma concentration of LNAAs may reduce the uptake into the brain(Van Spronsen et al). might thus bring clinical advantages. In particular, if the analysis on the subgroup show an increased Clast for the APR formulations versus the free amino acid formulations, it can be speculated that the patient may have a sort of “prolonged protection/tolerance” to phenylalanine.

[2] = In vivo bioavailability in pig: mean aggregate plasma concentrations of 14 amino acids; conditions: pigs, oral by gavage; for AUC 0-last / Cmax: 0.8 g of amino acid/kg body weight
Experimental: as §1, with “Results: […]” for “Results:”

[3] = In vivo bioavailability in pig: mean of branched chain amino acid (BCAA) plasma concentrations; conditions: BCAA (RAW DATA), pigs, oral by gavage, 0.8 g of amino acid/kg body weight
Experimental: as §1
The amino acids aggregated together for analysis were valine, isoleucine and leucine. This subgroup of essential amino acids was chosen for analysis because these essential amino acids are unique among amino acids in that their first catabolic step cannot occur in the liver. As a consequence, they largely escape first-pass splanchnic metabolism (Brosnan et al).
The statistical analysis for the date reported in Table 14e (for AUC, Cmax, and Clast: one-way repeated measures ANOVA with post hoc analysis with Bonferroni adjustment; for Tmax: Friedman test followed by multiple sign test for pairwise comparison) is reported in Table 14f

[4] = In vivo bioavailability in pig: mean of analyzed essential amino acid plasma concentrations; conditions: ESSENTIAL AA (RAW DATA), pigs, oral by gavage, 0.8 g of amino acid/kg body weight
Experimental: as §1
The amino acids aggregated together for analysis were Arginine, Histidine, Isoleucine, Leucine, Threonine, Lysine, Tryptophan and Valine. This subgroup was chosen for analysis because these amino acids cannot be endogenously synthesized. As a result, their concentrations in plasma from sampling the jugular vein may be more representative of the intestinal adsorption of the tested formulations than the non-essential amino acids whose presence in blood could be independently generated by the organism.
The statistical analysis for the date reported in Table 14c (for AUC, Cmax, and Clast: one-way repeated measures ANOVA with post hoc analysis with Bonferroni adjustment; for Tmax: Friedman test followed by multiple sign test for pairwise comparison) is reported in Table 14d.

[5] = tryptophan, threonine, valine, isoleucine, leucine, histidine, 0.8 g of amino acid/kg
[6] = 14 AA (BC DATA, basal values subtracted)
[7] = 14 AA (RAW DATA, basal values not subtracted)

## Casein
[1]; last sampling (5h), 0.8 g of amino acid/kg body weight
  Clast: 143.0
[1]; [5]
  AUC 0-last: 868.9
  Cmax: 257 µM
  Tmax: 1.16 h
[2]; [6]
  AUC 0-last: 258.9
  Cmax: 147 µM
[2]; 14 AA (RAW DATA), plasma concentration at the last sampling (5h), 0.8 g of amino acid/kg
  Clast: 172.9
[2]; [7]
  AUC 0-last: 1125.6
  Cmax: 325 µM
[3]; last sampling (5h)
  Clast: 228.7
[3]; valine, isoleucine and leucine
  AUC 0-last: 1365.3
  Cmax: 401 µM
  Tmax: 1.16 h
[4]; last sampling (5h)
  Clast: 153.0
[4]
  AUC 0-last: 969.9
  Cmax: 299 µM
  Tmax: 1.16 h
